First the molecules themselves.
B1: S. cerevisiae Abp1 (full length; SH3 domain 535-592 mutated) / Hua2 (parent complex)
chain 1: MALEPIDYTTHSREIDAEYLKIVRGSDPDTTWLIISPNAKKEYEPESTGSSFHDFLQLFDETKVQYGLARVSPPGSDVEKIIIIGWCPDSAPLKTRASFAANFAAVANNLFKGYHVQVTARDEDDLDENELLMKISNAAGARYSIQTSSKQQGKASTPPVKKSFTPSKSPAPVSKKEPVKTPSPAPAAKISSRVNDNNDDDDWNEPELKERDFDQAPLKPNQSSYKPIGKIDLQKVIAEEKAKEDPRLVQKPTAAGSKIDPSSDIANLKNESKLKRDSEFNSFLGTTKPPSMTESSLKNDDDKVIKGFRNEKSPAQLWAERKAKQNSGNAETKAEAPKPEVPEDEPEGEPDVKDLKSKFEGLAASEKEEEEMENKFAPPPKKSEPTIISPKPFSKPQEPVKAEEAEQPKTDYKKIGNPLPGMHIEADNEEEPEENDDDWDDDEDEAAQPPLPSRNVASGAPVQKEEPEQEEIAPSLPSRNSIPAPKQEEAPEQAPEEEIEEEAEEAAPQLPSRSSAAPPPPPRRATPEKKPKENPWATAEYDYDAAEDNELTFVENDKIINIEFVDDDWWLGELEKDGSKGLFPSNYVSLGN
chain 2: MQQTKFGKMYLDHDSVVEYSEDEIVEADRITLGYKKRLSMIENQMRHLLEDFSLDVQQIEPILADLQKYYDAFLQLLQKRNKSLQCKRSTHQPVPSPMNSQTSTNAKVNLSGKLMKFQLNSVQKFDEENILRILQNKIEFEHYFQIDKGKKQKVLLLAVYQCLNGPTRLHKVLNIEGIIHNNSIRTILGKQVSSSKWTVFLYDVKLVLLAHRQDVPNLETSKMIVRYGDLFPCALYFKDHTAY

Variants of B1 are the subject of the assay. Put plainly: DHFR protein-fragment complementation in yeast (Abp1-DHFR F[1,2] x partner-DHFR F[3]), deep mutational scanning, second methotrexate selection vs reference; S. cerevisiae, DHFR-PCA selection in liquid with methotrexate at 30 C, two 72 h selections (the score uses the second); reference = the pre-selection culture.
Consider chain 1 G578N, for which the screen value was 0.0866 DMS score: mean over two replicates of log2(f_test/f_ref + 0.5)/ln 2, minus the synonymous-codon median (not a log2 ….

chain 1 G578A: the screen value was -0.527 DMS score: mean over two replicates of log2(f_test/f_ref + 0.5)/ln 2, minus the synonymous-codon median (not a log2 …. Consider chain 1 G578H, for which the screen value was 0.339 DMS score: mean over two replicates of log2(f_test/f_ref + 0.5)/ln 2, minus the synonymous-codon median (not a log2 ….

Regarding chain 1 G578S, the screen value is -0.671 DMS score: mean over two replicates of log2(f_test/f_ref + 0.5)/ln 2, minus the synonymous-codon median (not a log2 …. chain 1 Y541L: the screen value is -2.57 DMS score: mean over two replicates of log2(f_test/f_ref + 0.5)/ln 2, minus the synonymous-codon median (not a log2 …. As to chain 1 Y541S, the screen value was -1.59 DMS score: mean over two replicates of log2(f_test/f_ref + 0.5)/ln 2, minus the synonymous-codon median (not a log2 …. Consider chain 1 Y541D, for which the screen value is -1.13 DMS score: mean over two replicates of log2(f_test/f_ref + 0.5)/ln 2, minus the synonymous-codon median (not a log2 …. For the variant chain 1 Y541V, the screen value is -1.72 DMS score: mean over two replicates of log2(f_test/f_ref + 0.5)/ln 2, minus the synonymous-codon median (not a log2 …. As for chain 1 Y541K, the screen value is -2.77 DMS score: mean over two replicates of log2(f_test/f_ref + 0.5)/ln 2, minus the synonymous-codon median (not a log2 …. For the variant chain 1 Y541C, the screen value was -1.21 DMS score: mean over two replicates of log2(f_test/f_ref + 0.5)/ln 2, minus the synonymous-codon median (not a log2 …. Consider chain 1 Y541F, for which the screen value was 0.0303 DMS score: mean over two replicates of log2(f_test/f_ref + 0.5)/ln 2, minus the synonymous-codon median (not a log2 …. Take chain 1 N556M: the screen value was -0.751 DMS score: mean over two replicates of log2(f_test/f_ref + 0.5)/ln 2, minus the synonymous-codon median (not a log2 …. Take chain 1 E563R: the screen value was -1.39 DMS score: mean over two replicates of log2(f_test/f_ref + 0.5)/ln 2, minus the synonymous-codon median (not a log2 …. As for chain 1 E563N, the figure is -0.99 DMS score: mean over two replicates of log2(f_test/f_ref + 0.5)/ln 2, minus the synonymous-codon median (not a log2 …; as for chain 1 L571A, -0.0753 DMS score: mean over two replicates of log2(f_test/f_ref + 0.5)/ln 2, minus the synonymous-codon median (not a log2 …; as for chain 1 D568N, -2.05 DMS score: mean over two replicates of log2(f_test/f_ref + 0.5)/ln 2, minus the synonymous-codon median (not a log2 …. As to chain 1 D568H, the screen value is -2.63 DMS score: mean over two replicates of log2(f_test/f_ref + 0.5)/ln 2, minus the synonymous-codon median (not a log2 …. Consider chain 1 D568S, for which the screen value is -2.97 DMS score: mean over two replicates of log2(f_test/f_ref + 0.5)/ln 2, minus the synonymous-codon median (not a log2 ….

Turning to chain 1 D568Y, the screen value is -2.08 DMS score: mean over two replicates of log2(f_test/f_ref + 0.5)/ln 2, minus the synonymous-codon median (not a log2 …. chain 1 D567A: the screen value was -2.23 DMS score: mean over two replicates of log2(f_test/f_ref + 0.5)/ln 2, minus the synonymous-codon median (not a log2 ….

For the variant chain 1 A545E, the screen value was -0.673 DMS score: mean over two replicates of log2(f_test/f_ref + 0.5)/ln 2, minus the synonymous-codon median (not a log2 ….

For the variant chain 1 T538A, the screen value is -0.987 DMS score: mean over two replicates of log2(f_test/f_ref + 0.5)/ln 2, minus the synonymous-codon median (not a log2 ….

For the variant chain 1 T538L, the screen value was 0.677 DMS score: mean over two replicates of log2(f_test/f_ref + 0.5)/ln 2, minus the synonymous-codon median (not a log2 …. In the case of chain 1 T538I, the screen value is 0.252 DMS score: mean over two replicates of log2(f_test/f_ref + 0.5)/ln 2, minus the synonymous-codon median (not a log2 ….

With chain 1 T538N, the screen value was -0.471 DMS score: mean over two replicates of log2(f_test/f_ref + 0.5)/ln 2, minus the synonymous-codon median (not a log2 …. In the case of chain 1 F564E, the screen value was 0.712 DMS score: mean over two replicates of log2(f_test/f_ref + 0.5)/ln 2, minus the synonymous-codon median (not a log2 …. Consider chain 1 F564M, for which the screen value is 0.421 DMS score: mean over two replicates of log2(f_test/f_ref + 0.5)/ln 2, minus the synonymous-codon median (not a log2 …. As for chain 1 F564K, the screen value is -2.62 DMS score: mean over two replicates of log2(f_test/f_ref + 0.5)/ln 2, minus the synonymous-codon median (not a log2 …. On to chain 1 F564P, for which the screen value is -2.61 DMS score: mean over two replicates of log2(f_test/f_ref + 0.5)/ln 2, minus the synonymous-codon median (not a log2 …. chain 1 F564R: the screen value was -2.96 DMS score: mean over two replicates of log2(f_test/f_ref + 0.5)/ln 2, minus the synonymous-codon median (not a log2 …. With chain 1 G591S, the screen value is 0.409 DMS score: mean over two replicates of log2(f_test/f_ref + 0.5)/ln 2, minus the synonymous-codon median (not a log2 …. As for chain 1 G591V, the figure is -0.0626 DMS score: mean over two replicates of log2(f_test/f_ref + 0.5)/ln 2, minus the synonymous-codon median (not a log2 …; as for chain 1 G591I, 0.474 DMS score: mean over two replicates of log2(f_test/f_ref + 0.5)/ln 2, minus the synonymous-codon median (not a log2 …. chain 1 G591D: the screen value is -0.157 DMS score: mean over two replicates of log2(f_test/f_ref + 0.5)/ln 2, minus the synonymous-codon median (not a log2 …. With chain 1 G591C, the screen value is -0.973 DMS score: mean over two replicates of log2(f_test/f_ref + 0.5)/ln 2, minus the synonymous-codon median (not a log2 ….

chain 1 G591H: the screen value was -0.407 DMS score: mean over two replicates of log2(f_test/f_ref + 0.5)/ln 2, minus the synonymous-codon median (not a log2 …. Then chain 1 G591Y, with -0.189 DMS score: mean over two replicates of log2(f_test/f_ref + 0.5)/ln 2, minus the synonymous-codon median (not a log2 …. Turning to chain 1 E575L, the screen value was -0.106 DMS score: mean over two replicates of log2(f_test/f_ref + 0.5)/ln 2, minus the synonymous-codon median (not a log2 …. Take chain 1 E575M: the screen value was -0.236 DMS score: mean over two replicates of log2(f_test/f_ref + 0.5)/ln 2, minus the synonymous-codon median (not a log2 …. Consider chain 1 E575C, for which the screen value was -0.21 DMS score: mean over two replicates of log2(f_test/f_ref + 0.5)/ln 2, minus the synonymous-codon median (not a log2 ….

Consider chain 1 E575S, for which the screen value was -0.146 DMS score: mean over two replicates of log2(f_test/f_ref + 0.5)/ln 2, minus the synonymous-codon median (not a log2 …. As for chain 1 E555F, the figure is -0.693 DMS score: mean over two replicates of log2(f_test/f_ref + 0.5)/ln 2, minus the synonymous-codon median (not a log2 …; as for chain 1 E555M, 0.105 DMS score: mean over two replicates of log2(f_test/f_ref + 0.5)/ln 2, minus the synonymous-codon median (not a log2 …. Take chain 1 E555Y: the screen value was -0.189 DMS score: mean over two replicates of log2(f_test/f_ref + 0.5)/ln 2, minus the synonymous-codon median (not a log2 ….

Regarding chain 1 E555A, the screen value was 1.03 DMS score: mean over two replicates of log2(f_test/f_ref + 0.5)/ln 2, minus the synonymous-codon median (not a log2 …. For chain 1 N592W, the screen value was -0.139 DMS score: mean over two replicates of log2(f_test/f_ref + 0.5)/ln 2, minus the synonymous-codon median (not a log2 …. Regarding chain 1 N592G, the screen value is 0.394 DMS score: mean over two replicates of log2(f_test/f_ref + 0.5)/ln 2, minus the synonymous-codon median (not a log2 …. Consider chain 1 N592S, for which the screen value is 0.526 DMS score: mean over two replicates of log2(f_test/f_ref + 0.5)/ln 2, minus the synonymous-codon median (not a log2 ….

For chain 1 N592E, the screen value is 1.16 DMS score: mean over two replicates of log2(f_test/f_ref + 0.5)/ln 2, minus the synonymous-codon median (not a log2 …. Regarding chain 1 K558L, the screen value is 0.204 DMS score: mean over two replicates of log2(f_test/f_ref + 0.5)/ln 2, minus the synonymous-codon median (not a log2 …. For the variant chain 1 K558C, the screen value was -0.507 DMS score: mean over two replicates of log2(f_test/f_ref + 0.5)/ln 2, minus the synonymous-codon median (not a log2 …. For chain 1 K558Q, the screen value was -0.388 DMS score: mean over two replicates of log2(f_test/f_ref + 0.5)/ln 2, minus the synonymous-codon median (not a log2 …. As for chain 1 K558E, the figure is -0.942 DMS score: mean over two replicates of log2(f_test/f_ref + 0.5)/ln 2, minus the synonymous-codon median (not a log2 …; as for chain 1 L551I, -0.106 DMS score: mean over two replicates of log2(f_test/f_ref + 0.5)/ln 2, minus the synonymous-codon median (not a log2 …; as for chain 1 S579C, -0.407 DMS score: mean over two replicates of log2(f_test/f_ref + 0.5)/ln 2, minus the synonymous-codon median (not a log2 ….

Take chain 1 S579K: the screen value was -0.28 DMS score: mean over two replicates of log2(f_test/f_ref + 0.5)/ln 2, minus the synonymous-codon median (not a log2 …. In the case of chain 1 S579N, the screen value was 0.51 DMS score: mean over two replicates of log2(f_test/f_ref + 0.5)/ln 2, minus the synonymous-codon median (not a log2 …. Take chain 1 K576T: the screen value was -0.475 DMS score: mean over two replicates of log2(f_test/f_ref + 0.5)/ln 2, minus the synonymous-codon median (not a log2 …. Consider chain 1 E547H, for which the screen value is -2.24 DMS score: mean over two replicates of log2(f_test/f_ref + 0.5)/ln 2, minus the synonymous-codon median (not a log2 …. chain 1 E547S: the screen value was -2.1 DMS score: mean over two replicates of log2(f_test/f_ref + 0.5)/ln 2, minus the synonymous-codon median (not a log2 …. In the case of chain 1 E547K, the screen value is -2.17 DMS score: mean over two replicates of log2(f_test/f_ref + 0.5)/ln 2, minus the synonymous-codon median (not a log2 …. As for chain 1 E547Q, the screen value is -2.26 DMS score: mean over two replicates of log2(f_test/f_ref + 0.5)/ln 2, minus the synonymous-codon median (not a log2 …. Take chain 1 W536V: the screen value was -0.259 DMS score: mean over two replicates of log2(f_test/f_ref + 0.5)/ln 2, minus the synonymous-codon median (not a log2 …. Consider chain 1 Y543H, for which the screen value is -0.676 DMS score: mean over two replicates of log2(f_test/f_ref + 0.5)/ln 2, minus the synonymous-codon median (not a log2 ….

Turning to chain 1 Y543W, the screen value is 0.254 DMS score: mean over two replicates of log2(f_test/f_ref + 0.5)/ln 2, minus the synonymous-codon median (not a log2 …. Regarding chain 1 Y587H, the screen value is -0.477 DMS score: mean over two replicates of log2(f_test/f_ref + 0.5)/ln 2, minus the synonymous-codon median (not a log2 …. As to chain 1 Y587I, the screen value was -0.578 DMS score: mean over two replicates of log2(f_test/f_ref + 0.5)/ln 2, minus the synonymous-codon median (not a log2 …. Regarding chain 1 D542K, the screen value was -0.627 DMS score: mean over two replicates of log2(f_test/f_ref + 0.5)/ln 2, minus the synonymous-codon median (not a log2 …. Consider chain 1 D542F, for which the screen value is -0.772 DMS score: mean over two replicates of log2(f_test/f_ref + 0.5)/ln 2, minus the synonymous-codon median (not a log2 …. For the variant chain 1 D542N, the screen value is 0.0633 DMS score: mean over two replicates of log2(f_test/f_ref + 0.5)/ln 2, minus the synonymous-codon median (not a log2 …. As to chain 1 E540H, the screen value is -2.15 DMS score: mean over two replicates of log2(f_test/f_ref + 0.5)/ln 2, minus the synonymous-codon median (not a log2 ….

As for chain 1 E540K, the screen value was -2.41 DMS score: mean over two replicates of log2(f_test/f_ref + 0.5)/ln 2, minus the synonymous-codon median (not a log2 …. chain 1 E540I: the screen value was -2.91 DMS score: mean over two replicates of log2(f_test/f_ref + 0.5)/ln 2, minus the synonymous-codon median (not a log2 …. Then chain 1 E540M, with -2.49 DMS score: mean over two replicates of log2(f_test/f_ref + 0.5)/ln 2, minus the synonymous-codon median (not a log2 …; and chain 1 L590F, with -0.882 DMS score: mean over two replicates of log2(f_test/f_ref + 0.5)/ln 2, minus the synonymous-codon median (not a log2 ….

The record behind these values is PMC7954794 (2021).
